Test results reported in patent publication US20180298361A1 (CHO PHARMA, published 2018).

B1: Commercial Rituximab (antibody, human IgG1, kappa)
heavy: not shown
light: QIVLSQSPAILSASPGEKVTMTCRASSSVSYIHWFQQKPGSSPKPWIYATNLASGVPVRFSGSGSGTSYSLTISRVEAEDAATYYCQQWTSNPPTFGGGTKLEIKRTVAAPSVFIFPPSDEQLKSGTASVVCLLNNFYPREAKVQWKVDNALQSGNSQESVTEQDSKDSTYSLSSTLTLSKADYEKHKVYACEVTHQGLSSPVTKSFNRGEC
modifications: heterogeneous Fc N-glycans at N297: core-fucosylated biantennary complex type oligosaccharides carrying 0-2 galactose (G0F, G1F, G2F)
notes: DrugBank DB00073; also called non-modified Rituximab; original Rituximab
B2: Rtx-G7 (antibody, human IgG1, kappa)
heavy: not shown
light: B1 light
modifications: homogeneous non-fucosylated N-glycan G7 (bi-antennary complex type with terminal di-galactose) at Asn-297
notes: also called glycoengineered Rituximab G7; bi-antennary complex type glycoform
B3: Rtx-G2 (antibody, human IgG1, kappa)
heavy: not shown
light: B1 light
modifications: homogeneous non-fucosylated N-glycan G2 (high mannose type, Man9GlcNAc2) at Asn-297
notes: also called glycoengineered Rituximab G2; Man9GlcNAc2 glycoform
B4: Rtx-G11 (antibody, human IgG1, kappa)
heavy: not shown
light: B1 light
modifications: homogeneous N-glycan G11 (bi-antennary complex type; structure only in FIG. 15) at Asn-297
notes: also called glycoengineered Rituximab G11; bi-antennary complex type glycoform
B5: Rtx-G5 (antibody, human IgG1, kappa)
heavy: not shown
light: B1 light
modifications: homogeneous non-fucosylated N-glycan G5 (tri-antennary complex type with terminal galactose residues) at Asn-297
notes: also called glycoengineered Rituximab G5; tri-antennary complex type glycoform
B6: Rtx-G4 (antibody, human IgG1, kappa)
heavy: not shown
light: B1 light
modifications: homogeneous non-fucosylated N-glycan G4 (hybrid type; structure in FIG. 15) at Asn-297
notes: also called glycoengineered Rituximab G4; hybrid type glycoform
B7: Rtx-G9 (antibody, human IgG1, kappa)
heavy: not shown
light: B1 light
modifications: homogeneous N-glycan G9 without core fucose (bi-antennary complex type with alpha 1,2 fucose on one of the two terminal galactose) at Asn-297
notes: also called glycoengineered Rituximab G9; bi-antennary complex type glycoform
B8: Rtx-G16 (antibody, human IgG1, kappa)
heavy: not shown
light: B1 light
modifications: homogeneous non-fucosylated N-glycan G16 (bi-antennary complex type with terminal alpha-2,6 sialic acids) at Asn-297
notes: also called glycoengineered Rituximab G16; bi-antennary complex type glycoform
B9: Rtx-G10 (antibody, human IgG1, kappa)
heavy: not shown
light: B1 light
modifications: homogeneous N-glycan G10 without core fucose (bi-antennary complex type with alpha 1,3 fucose on both GlcNAc and terminal di-galactose) at Asn-297
notes: also called glycoengineered Rituximab G10; bi-antennary complex type glycoform
B10: Rtx-G15 (antibody, human IgG1, kappa)
heavy: not shown
light: B1 light
modifications: homogeneous N-glycan G15 (bi-antennary complex type; structure only in FIG. 15) at Asn-297
notes: also called glycoengineered Rituximab G15; bi-antennary complex type glycoform
B11: Rtx-G3 (antibody, human IgG1, kappa)
heavy: not shown
light: B1 light
modifications: homogeneous non-fucosylated N-glycan G3 (hybrid type; structure in FIG. 15) at Asn-297
notes: also called glycoengineered Rituximab G3; hybrid type glycoform
B12: Rtx-G8 (antibody, human IgG1, kappa)
heavy: not shown
light: B1 light
modifications: homogeneous non-fucosylated N-glycan G8 (bi-antennary complex type with bisected GlcNAc and terminal di-galactose) at Asn-297
notes: also called glycoengineered Rituximab G8; bi-antennary complex type glycoform
B13: Rtx-G12 (antibody, human IgG1, kappa)
heavy: not shown
light: B1 light
modifications: homogeneous N-glycan G12 (bi-antennary complex type; structure only in FIG. 15) at Asn-297
notes: also called glycoengineered Rituximab G12; bi-antennary complex type glycoform
B14: Rtx-G13 (antibody, human IgG1, kappa)
heavy: not shown
light: B1 light
modifications: homogeneous N-glycan G13 (bi-antennary complex type; structure only in FIG. 15) at Asn-297
notes: also called glycoengineered Rituximab G13; bi-antennary complex type glycoform
B15: Rtx-G6 (antibody, human IgG1, kappa)
heavy: not shown
light: B1 light
modifications: homogeneous non-fucosylated N-glycan G6 (tri-antennary complex type with terminal alpha-2,6 sialic acids) at Asn-297
notes: also called glycoengineered Rituximab G6; tri-antennary complex type glycoform
B16: Rtx-G14 (antibody, human IgG1, kappa)
heavy: not shown
light: B1 light
modifications: homogeneous N-glycan G14 (bi-antennary complex type; structure only in FIG. 15) at Asn-297
notes: also called glycoengineered Rituximab G14; bi-antennary complex type glycoform
B17: Rtx-G1 (antibody, human IgG1, kappa)
heavy: not shown
light: B1 light
modifications: homogeneous non-fucosylated N-glycan G1 (high mannose type, Man5GlcNAc2) at Asn-297
notes: also called glycoengineered Rituximab G1; Man5GlcNAc2 glycoform

target: T1, recombinant soluble FcγRIIIA (UniProt P08637 17-208, limits assumed); test: ELISA; recombinant soluble FcγRIIIA coated on plate; the reference itself
T1 construct: also called FcγIIIA; FcTRIIIA
T1 sequence (P08637 17-208 limits assumed): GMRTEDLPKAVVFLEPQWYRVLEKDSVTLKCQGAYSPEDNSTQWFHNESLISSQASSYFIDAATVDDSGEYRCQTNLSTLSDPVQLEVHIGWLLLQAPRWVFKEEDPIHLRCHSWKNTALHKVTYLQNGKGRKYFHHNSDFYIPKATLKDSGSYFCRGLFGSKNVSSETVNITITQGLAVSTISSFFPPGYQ
Method: (§1) Microtiter plate (Corning® 96 Well Clear Flat Bottom Polystyrene High Bind, #9018) was coated with 50 ng/well of recombinant soluble FcγRIIIA diluted in 50 mM Bicarbonate/carbonate coating buffer (pH 10) overnight at 4° C. The plate was then washed 3 times with PBST (0.05% Tween 20 in PBS) and blocked with 5% BSA in PBST for 1 h at room temperature. The binding activity of glycoengineered antibodies (Rtx G1-G16) was determined for serial eight dilutions, starting with concentration of 100 μg/m1 in 2% BSA/PBST in duplicates. The plate was incubated for 1 h at room temperature, and washed 3 times with PBST. Next, 100 μl of goat anti-human IgG conjugated to horseradish peroxidase (Jackson immune, #109-035-088) in 2% BSA/PBST was added per well and incubated for 30 min at room temperature. The plate was washed 5 times with PBST then 100 μL per well of TMB substrate (eBioscience, #00-4201-56) was added and the resulting plate was incubated in the dark 15 min at room temperature. The absorbance value was determined at 450 nm in an ELISA reader (Molecular Devices Corporation, Sunnyvale, Calif., USA).

| Binder | EC50 improvement Folds [fold] |
| --- | --- |
| B1 | 1 |

target: T1, recombinant soluble FcγRIIIA; test: ELISA; recombinant soluble FcγRIIIA coated on plate; against commercial Rituximab
Method: as §1

| Binder | EC50 improvement Folds [fold] |
| --- | --- |
| B2 | 35 |
| B3 | ~1 |
| B4 | 5.4 |
| B5 | 35 |
| B6 | 2.7 |
| B7 | 17 |
| B8 | 34 |
| B9 | 26 |
| B10 | 32 |
| B11 | 3.2 |
| B12 | 32 |
| B13 | 33 |
| B14 | 22 |
| B15 | 34 |
| B16 | 33 |
| B17 | 6.5 |

target: T1, recombinant soluble FcγRIIIA; test: ELISA; recombinant soluble FcγRIIIA coated on plate, antibody titrated, anti-human IgG-HRP detection
Method: as §1

| Binder | EC50 [µg/mL] | Maxi binding (A450 nm) |
| --- | --- | --- |
| B1 | 1.04 | 1.2 |
| B2 | 0.031 | 2.5 |
| B3 | 1.05 | 1.1 |
| B4 | 0.199 | 2.4 |
| B5 | 0.031 | 2.6 |
| B6 | 0.394 | 1.2 |
| B7 | 0.061 | 2.4 |
| B8 | 0.032 | 2.5 |
| B9 | 0.043 | 2.2 |
| B10 | 0.034 | 2.3 |
| B11 | 0.32 | 1.3 |
| B12 | 0.034 | 2.3 |
| B13 | 0.033 | 2.6 |
| B14 | 0.048 | 2.6 |
| B15 | 0.032 | 2.8 |
| B16 | 0.033 | 2.4 |
| B17 | 0.16 | 1.4 |
